# B1: scFv m9 (scFv)
# scFv: VLTQSPGTLSLSAGERATLSCRASQSVSSGSLAWYQQKPGQAPRLLIYGASTRATGIPDRFSGSGSGTDFTLTIGRLEPEDLAVYYCQQYGTSPYTFGQGTKLEIKRTGGGGSGGGGSGGGGSVQLLEQSGAEVKKPGSSVQVSCKAFGGTFSMYGFNWVRQAPGHGLEWMGGIIPIFGTTNYAQKFRGRVTFTADQATSTAYMELTNLRSDDTAVYYCARDFGPDWEGGDSYDGSGRGFFDFWGQGTLVNVSS
# Key:
# Assay in all cases: cell-based or functional assay
# [1] = biological target: HIV-1 IIIB envelope glycoprotein (Env) (HIV-1 strain IIIB)
# [2] = biological target: HIV-1 AD8 envelope glycoprotein (Env) (HIV-1 strain AD8)
# [3] = biological target: T1, HIV-1 JR-FL envelope glycoprotein (Env) (HIV-1 strain JR-FL)
# [4] = biological target: HIV-1 IIIB envelope glycoprotein (Env) (HIV-1 strain IIIB); remark: listed apart in the source
# [5] = biological target: HIV-1 AD8 envelope glycoprotein (Env) (HIV-1 strain AD8); remark: listed apart in the source
# [6] = biological target: T1, HIV-1 JR-FL envelope glycoprotein (Env); remark: listed apart in the source
binder,measurement,setting,value
B1,Neutralizing activity (percentage) at 100 µg/mL,[1],100%
same,Neutralizing activity (percentage) at 100 µg/mL,[2],100%
same,Neutralizing activity (percentage) at 100 µg/mL,[3],90%
same,"percentage of maximal infection, U87.CD4.CCR5.CXCR4 cells, 100 µg/mL antibody",[4],12%
same,"percentage of maximal infection, U87.CD4.CCR5.CXCR4 cells, 100 µg/mL antibody",[5],6.1%
same,"percentage of maximal infection, U87.CD4.CCR5.CXCR4 cells, 100 µg/mL antibody",[6],20%
